According to patent US9260500B2, “Peptide and use thereof” (Takeda Pharmaceutical Company Limited, priority 2009, dated 2016):
Non-standard residues stand in square brackets, D forms with d. *: point of attachment. Tyr(3-F) = N[C@@H](Cc1ccc(O)c(F)c1)C(=O)O; Tyr(2-F) = N[C@@H](Cc1ccc(O)cc1F)C(=O)O; Phe(4-F) = N[C@@H](Cc1ccc(F)cc1)C(=O)O; tBuAla = CC(C)(C)C[C@H](N)C(=O)O; 3Pal = N[C@@H](Cc1cccnc1)C(=O)O; 4Pal = N[C@@H](Cc1ccncc1)C(=O)O; dHyp = O=C(O)[C@H]1C[C@H](O)CN1; Cha = N[C@@H](CC1CCCCC1)C(=O)O; Gly(cPr) = N[C@H](C(=O)O)C1CC1; Isobutyryl = CC(C)C(=O)*; Abu = CC[C@H](N)C(=O)O; Aib = CC(C)(N)C(=O)O

Assays:
human Y2 receptor [1] = biological target: T1, human Y2 receptor (Homo sapiens, UniProt P49146); assay: Receptor Binding Assay (RBA) for Human Y2, [125I]-PYY displacement on hY2R/CHO membrane fraction; details: IC50 of test compound/IC50 of PYY(3-36) (PYY(3-36) taken as 1)
T1 construct: expressed in transfected cells; membrane fraction
T1 sequence (P49146 1-381): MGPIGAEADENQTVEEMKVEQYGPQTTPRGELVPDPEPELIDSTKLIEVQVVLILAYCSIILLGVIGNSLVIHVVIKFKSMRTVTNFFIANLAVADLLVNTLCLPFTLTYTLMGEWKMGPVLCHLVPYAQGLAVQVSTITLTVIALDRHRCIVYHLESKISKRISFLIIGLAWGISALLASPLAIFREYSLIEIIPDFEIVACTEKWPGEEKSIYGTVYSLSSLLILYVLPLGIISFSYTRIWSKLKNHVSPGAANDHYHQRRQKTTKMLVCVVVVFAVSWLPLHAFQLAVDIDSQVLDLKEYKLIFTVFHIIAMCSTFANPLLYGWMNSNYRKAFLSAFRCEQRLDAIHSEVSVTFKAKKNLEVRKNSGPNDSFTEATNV
How it was run: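 hY2R stably expressed in CHO/dhfr− cells; membrane fraction prepared from cells disrupted in 10 mM NaHCO3, 5 mM EDTA buffer with protease inhibitors. Binding read as displacement of [125I]-PYY.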

human Y2 receptor [2] = biological target: T1, human Y2 receptor; assay: Human Y2 Receptor G Protein Binding Assay (GBA), [35S]GTPγS; assay type: biochemical; details: EC50 of test compound/EC50 of PYY(3-36) (PYY3-36 taken as 1), hY2R/CHO membrane fraction
How it was run: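 Agonism measured as [35S]GTPγS binding, read by GF/C filtration and scintillation counting after 120 min at room temperature, using human Y2 membranes at 1 μg protein/mL in pH 7.4 Tris/MgCl2/NaCl/GDP buffer. Compound serially diluted 100 μM–1 nM; EC50 normalized to PYY(3-36) (ratio = compound/PYY).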

Row | Substance | RBA IC50 Ratio (human Y2 receptor [1]) | GBA EC50 Ratio (human Y2 receptor [2])
1 | Isobutanoyl-[Abu26, Cha27,28,36, Leu(Me)30, Aib31]-PYY(25-36) (Isobutyryl-R[Abu][Cha][Cha]N[tBuAla][Aib]TRQR[Cha]-NH2; SMILES CC[C@H](NC(=O)[C@H](CCCNC(=N)N)NC(=O)C(C)C)C(=O)N[C@@H](CC1CCCCC1)C(=O)N[C@@H](CC1CCCCC1)C(=O)N[C@@H](CC(N)=O)C(=O)N[C@@H](CC(C)(C)C)C(=O)NC(C)(C)C(=O)N[C@H](C(=O)N[C@@H](CCCNC(=N)N)C(=O)N[C@@H](CCC(N)=O)C(=O)N[C@@H](CCCNC(=N)N)C(=O)N[C@@H](CC1CCCCC1)C(N)=O)[C@@H](C)O) [compound No. 81] | 51 | 26
2 | Isobutanoyl-[Abu26, Cha27,28,36, Pya(3)31]-PYY(25-36) (Isobutyryl-R[Abu][Cha][Cha]NL[3Pal]TRQR[Cha]-NH2; SMILES CC[C@H](NC(=O)[C@H](CCCNC(=N)N)NC(=O)C(C)C)C(=O)N[C@@H](CC1CCCCC1)C(=O)N[C@@H](CC1CCCCC1)C(=O)N[C@@H](CC(N)=O)C(=O)N[C@@H](CC(C)C)C(=O)N[C@@H](Cc1cccnc1)C(=O)N[C@H](C(=O)N[C@@H](CCCNC(=N)N)C(=O)N[C@@H](CCC(N)=O)C(=O)N[C@@H](CCCNC(=N)N)C(=O)N[C@@H](CC1CCCCC1)C(N)=O)[C@@H](C)O) [compound No. 82] | 25 | 19
3 | Isobutanoyl-[Abu26, Cha27,28,36, Ser30, Aib31]-PYY(25-36) (Isobutyryl-R[Abu][Cha][Cha]NS[Aib]TRQR[Cha]-NH2; SMILES CC[C@H](NC(=O)[C@H](CCCNC(=N)N)NC(=O)C(C)C)C(=O)N[C@@H](CC1CCCCC1)C(=O)N[C@@H](CC1CCCCC1)C(=O)N[C@@H](CC(N)=O)C(=O)N[C@@H](CO)C(=O)NC(C)(C)C(=O)N[C@H](C(=O)N[C@@H](CCCNC(=N)N)C(=O)N[C@@H](CCC(N)=O)C(=O)N[C@@H](CCCNC(=N)N)C(=O)N[C@@H](CC1CCCCC1)C(N)=O)[C@@H](C)O) [compound No. 89] | 26 | 28
4 | Isobutanoyl-[Abu26, Cha27,28, Aib31, Tyr(2F)36]-PYY(25-36) (Isobutyryl-R[Abu][Cha][Cha]NL[Aib]TRQR[Tyr(2-F)]-NH2; SMILES CC[C@H](NC(=O)[C@H](CCCNC(=N)N)NC(=O)C(C)C)C(=O)N[C@@H](CC1CCCCC1)C(=O)N[C@@H](CC1CCCCC1)C(=O)N[C@@H](CC(N)=O)C(=O)N[C@@H](CC(C)C)C(=O)NC(C)(C)C(=O)N[C@H](C(=O)N[C@@H](CCCNC(=N)N)C(=O)N[C@@H](CCC(N)=O)C(=O)N[C@@H](CCCNC(=N)N)C(=O)N[C@@H](Cc1ccc(O)cc1F)C(N)=O)[C@@H](C)O) [compound No. 86] | 19 | 11
5 | Isobutanoyl-[Abu26, Cha27,28, Aib31, Tyr(3F)36]-PYY(25-36) (Isobutyryl-R[Abu][Cha][Cha]NL[Aib]TRQR[Tyr(3-F)]-NH2; SMILES CC[C@H](NC(=O)[C@H](CCCNC(=N)N)NC(=O)C(C)C)C(=O)N[C@@H](CC1CCCCC1)C(=O)N[C@@H](CC1CCCCC1)C(=O)N[C@@H](CC(N)=O)C(=O)N[C@@H](CC(C)C)C(=O)NC(C)(C)C(=O)N[C@H](C(=O)N[C@@H](CCCNC(=N)N)C(=O)N[C@@H](CCC(N)=O)C(=O)N[C@@H](CCCNC(=N)N)C(=O)N[C@@H](Cc1ccc(O)c(F)c1)C(N)=O)[C@@H](C)O) [compound No. 87] | 26 | 20
6 | Isobutanoyl-[Abu26, Cha27,36, Gln28, Aib31]-PYY(25-36) (Isobutyryl-R[Abu][Cha]QNL[Aib]TRQR[Cha]-NH2; SMILES CC[C@H](NC(=O)[C@H](CCCNC(=N)N)NC(=O)C(C)C)C(=O)N[C@@H](CC1CCCCC1)C(=O)N[C@@H](CCC(N)=O)C(=O)N[C@@H](CC(N)=O)C(=O)N[C@@H](CC(C)C)C(=O)NC(C)(C)C(=O)N[C@H](C(=O)N[C@@H](CCCNC(=N)N)C(=O)N[C@@H](CCC(N)=O)C(=O)N[C@@H](CCCNC(=N)N)C(=O)N[C@@H](CC1CCCCC1)C(N)=O)[C@@H](C)O) [compound No. 100] | 45 | 30
7 | Isobutanoyl-[Abu26, Cha27,36, Gly(cPr)28, Aib31]-PYY(25-36) (Isobutyryl-R[Abu][Cha][Gly(cPr)]NL[Aib]TRQR[Cha]-NH2; SMILES CC[C@H](NC(=O)[C@H](CCCNC(=N)N)NC(=O)C(C)C)C(=O)N[C@@H](CC1CCCCC1)C(=O)N[C@H](C(=O)N[C@@H](CC(N)=O)C(=O)N[C@@H](CC(C)C)C(=O)NC(C)(C)C(=O)N[C@H](C(=O)N[C@@H](CCCNC(=N)N)C(=O)N[C@@H](CCC(N)=O)C(=O)N[C@@H](CCCNC(=N)N)C(=O)N[C@@H](CC1CCCCC1)C(N)=O)[C@@H](C)O)C1CC1) [compound No. 93] | 52 | 41
8 | Isobutanoyl-[Abu26, Cha27,36, His28, Aib31]-PYY(25-36) (Isobutyryl-R[Abu][Cha]HNL[Aib]TRQR[Cha]-NH2; SMILES CC[C@H](NC(=O)[C@H](CCCNC(=N)N)NC(=O)C(C)C)C(=O)N[C@@H](CC1CCCCC1)C(=O)N[C@@H](Cc1c[nH]cn1)C(=O)N[C@@H](CC(N)=O)C(=O)N[C@@H](CC(C)C)C(=O)NC(C)(C)C(=O)N[C@H](C(=O)N[C@@H](CCCNC(=N)N)C(=O)N[C@@H](CCC(N)=O)C(=O)N[C@@H](CCCNC(=N)N)C(=O)N[C@@H](CC1CCCCC1)C(N)=O)[C@@H](C)O) [compound No. 101] | 19 | 13
9 | Isobutanoyl-[Abu26, Cha27,36, Phe(4F)28, Aib31]-PYY(25-36) (Isobutyryl-R[Abu][Cha][Phe(4-F)]NL[Aib]TRQR[Cha]-NH2; SMILES CC[C@H](NC(=O)[C@H](CCCNC(=N)N)NC(=O)C(C)C)C(=O)N[C@@H](CC1CCCCC1)C(=O)N[C@@H](Cc1ccc(F)cc1)C(=O)N[C@@H](CC(N)=O)C(=O)N[C@@H](CC(C)C)C(=O)NC(C)(C)C(=O)N[C@H](C(=O)N[C@@H](CCCNC(=N)N)C(=O)N[C@@H](CCC(N)=O)C(=O)N[C@@H](CCCNC(=N)N)C(=O)N[C@@H](CC1CCCCC1)C(N)=O)[C@@H](C)O) [compound No. 79] | 23 | 20
10 | Isobutanoyl-[Abu26, Cha27,36, Pya(4)28, Aib31]-PYY(25-36) (Isobutyryl-R[Abu][Cha][4Pal]NL[Aib]TRQR[Cha]-NH2; SMILES CC[C@H](NC(=O)[C@H](CCCNC(=N)N)NC(=O)C(C)C)C(=O)N[C@@H](CC1CCCCC1)C(=O)N[C@@H](Cc1ccncc1)C(=O)N[C@@H](CC(N)=O)C(=O)N[C@@H](CC(C)C)C(=O)NC(C)(C)C(=O)N[C@H](C(=O)N[C@@H](CCCNC(=N)N)C(=O)N[C@@H](CCC(N)=O)C(=O)N[C@@H](CCCNC(=N)N)C(=O)N[C@@H](CC1CCCCC1)C(N)=O)[C@@H](C)O) [compound No. 83] | 26 | 22
11 | Isobutanoyl-[Abu26, Cha27,36, Ser28, Aib31]-PYY(25-36) (Isobutyryl-R[Abu][Cha]SNL[Aib]TRQR[Cha]-NH2; SMILES CC[C@H](NC(=O)[C@H](CCCNC(=N)N)NC(=O)C(C)C)C(=O)N[C@@H](CC1CCCCC1)C(=O)N[C@@H](CO)C(=O)N[C@@H](CC(N)=O)C(=O)N[C@@H](CC(C)C)C(=O)NC(C)(C)C(=O)N[C@H](C(=O)N[C@@H](CCCNC(=N)N)C(=O)N[C@@H](CCC(N)=O)C(=O)N[C@@H](CCCNC(=N)N)C(=O)N[C@@H](CC1CCCCC1)C(N)=O)[C@@H](C)O) [compound No. 102] | 49 | 35
12 | Isobutanoyl-[Abu26, Gly27, Cha28,36, Aib31]-PYY(25-36) (Isobutyryl-R[Abu]G[Cha]NL[Aib]TRQR[Cha]-NH2; SMILES CC[C@H](NC(=O)[C@H](CCCNC(=N)N)NC(=O)C(C)C)C(=O)NCC(=O)N[C@@H](CC1CCCCC1)C(=O)N[C@@H](CC(N)=O)C(=O)N[C@@H](CC(C)C)C(=O)NC(C)(C)C(=O)N[C@H](C(=O)N[C@@H](CCCNC(=N)N)C(=O)N[C@@H](CCC(N)=O)C(=O)N[C@@H](CCCNC(=N)N)C(=O)N[C@@H](CC1CCCCC1)C(N)=O)[C@@H](C)O) [compound No. 95] | 70 | 49
13 | Isobutanoyl-[Asp23, D-Hyp24, Cha27,28,36, Aib31]-PYY(23-36) (Isobutyryl-D[dHyp]RH[Cha][Cha]NL[Aib]TRQR[Cha]-NH2; SMILES CC(C)C[C@H](NC(=O)[C@H](CC(N)=O)NC(=O)[C@H](CC1CCCCC1)NC(=O)[C@H](CC1CCCCC1)NC(=O)[C@H](Cc1c[nH]cn1)NC(=O)[C@H](CCCNC(=N)N)NC(=O)[C@H]1C[C@H](O)CN1C(=O)[C@H](CC(=O)O)NC(=O)C(C)C)C(=O)NC(C)(C)C(=O)N[C@H](C(=O)N[C@@H](CCCNC(=N)N)C(=O)N[C@@H](CCC(N)=O)C(=O)N[C@@H](CCCNC(=N)N)C(=O)N[C@@H](CC1CCCCC1)C(N)=O)[C@@H](C)O) [compound No. 127] | 2.6 | 3.1
